Measurements reported in patent US20230312724A1 (KADMON, published 2023).
Read-outs that look alike come from different tables or passages of the source.

Experiments:
[1] = molecular target: T1, hB7-H4 (soluble human B7-H4, construct not named) (human, UniProt Q7Z7D3 25-259, limits assumed); assay: ELISA, hB7-H4
T1 construct: also called soluble hB7-H4
T1 sequence: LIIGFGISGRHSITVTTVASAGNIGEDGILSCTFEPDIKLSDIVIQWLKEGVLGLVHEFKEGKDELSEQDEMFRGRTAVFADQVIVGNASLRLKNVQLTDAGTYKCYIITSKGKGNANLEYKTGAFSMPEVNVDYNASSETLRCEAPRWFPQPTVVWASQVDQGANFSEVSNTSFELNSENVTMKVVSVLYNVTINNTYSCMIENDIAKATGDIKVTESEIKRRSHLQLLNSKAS
Protocol: (§1) About 1-2 μg/ml of human or mouse B7-H4-Fc (or his-tagged) was immobilized on ELISA plates (Immuno 2HB, Thermo scientific, cat #3455) at 4° C. overnight. After blocking the plates with 3% PBS+milk, serial diluted antibodies were added to the blocked plates and incubated at RT for 1-1.5 h. After washing the plates with PBS-T (0.05%), horse radish peroxidase (HRP)-conjugated antibody targeting the hFab was added to the plate. Signals were developed by adding 3,3′,5,5′-Tetramethylbenzidine (TMB (followed 1N of H₂SO₄ to stop the reaction. The OD at 450 nm was read by ELISA plate reader (Infinite M1000 from TECAN). GraphPad from Prism was used to plot OD450 vs. antibody concentration curve and to calculate the EC50 values.

[2] = molecular target: T2, IgC domain of human B7-H4-Fc (human); assay: ELISA, coated hB7-H4 IgC domain (title on the sheet: IgC domain of hB7H4)
T2 construct: also called hB7-H4 IgC domain
Protocol: as §1

[3] = molecular target: T3, human B7-H4 expressed on cells (human, UniProt Q7Z7D3 25-282); assay: flow cytometry, SK-BR-3 cells
T3 construct: Transfected CHO cells or tumor cell lines that carry hB7-H4; also called cellular hB7-H4
T3 sequence: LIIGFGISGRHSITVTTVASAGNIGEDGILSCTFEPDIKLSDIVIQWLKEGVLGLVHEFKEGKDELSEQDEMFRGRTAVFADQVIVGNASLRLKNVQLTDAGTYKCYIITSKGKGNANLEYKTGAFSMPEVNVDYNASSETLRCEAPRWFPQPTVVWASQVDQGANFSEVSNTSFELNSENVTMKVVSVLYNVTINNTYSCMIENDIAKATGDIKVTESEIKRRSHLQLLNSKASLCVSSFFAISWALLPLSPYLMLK
Protocol: (§2) Cells were harvested, washed once, and then re-suspended to the concentration of 1×10⁶ cells/ml in ice cold FACS Buffer. 25 μl of cell suspension was added to each well of a 96-well round-bottom microliter plate. Serially diluted antibodies or fusion proteins were added to each well and incubated for 1 hour at 4° C. Cells were washed three times by centrifugation at 1500 rpm for 5 minutes, and then stained with secondary antibody (1:200 dilution) for 30 min at 4° C. in the dark. Cells were washed once, re-suspended in 100 μl PBS buffer and then analyzed using Guava Flow Cytometry EasyCyte system.

[4] = molecular target: T4, mouse B7-H4 expressed on cells (mouse, UniProt Q7TSP5 25-257); assay: flow cytometry, CHO cells expressing mB7-H4
T4 construct: also called cellular mB7-H4; mB7-H4/CT26
T4 sequence: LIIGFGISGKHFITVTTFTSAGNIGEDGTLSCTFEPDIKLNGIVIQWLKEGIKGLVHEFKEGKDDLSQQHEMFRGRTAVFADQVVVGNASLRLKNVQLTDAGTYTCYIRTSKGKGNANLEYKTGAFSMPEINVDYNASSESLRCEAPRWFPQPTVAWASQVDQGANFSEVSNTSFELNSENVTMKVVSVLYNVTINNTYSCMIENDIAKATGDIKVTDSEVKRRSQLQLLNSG

[5] = molecular target: T5, IgC domain of mouse B7-H4-Fc (mouse; human); assay: ELISA, coated mB7-H4 IgC domain (title on the sheet: IgC domain of mB7H4)
T5 construct: also called mB7-H4 IgC domain
Protocol: as §1

[6] = molecular target: T6, IgV domain of mouse B7-H4-Fc (mouse; human); assay: ELISA, coated mB7-H4 IgV domain
T6 construct: also called mB7-H4 IgV domain
Protocol: as §1

[7] = molecular target: T1, hB7-H4 (soluble human B7-H4, construct …); assay: SPR (Biacore)
Protocol: (§3) Surface plasmon resonance experiments were performed using a Biacore T200 instrument equipped with CM5 sensor chips. The system was equilibrated in running buffer HBS-EP pH 7.4. The ligands were immobilized using amine-coupling chemistry. The surfaces of flow cells one through four were activated for 5 min using an amine coupling kit at a flow rate of […]. The ligands (human B7-H4-Fc, human B7-H4-hism and mouse B7-H4-Fc; at a concentration of 5 μg/ml in 10 mM sodium acetate, pH 5.0) were immobilized at a density of 50-100 RU on flow cell 2, 3, 4 respectively. Flow cell 1 was left blank to serve as a reference surface. All flow cell surfaces were blocked with a 5 min injection of 1 M ethanolamine, pH 8.0. To collect kinetic binding data, the respective analyte (diluted in 1×HBS-EP buffer, pH 7.4) was injected over the four flow cells at concentrations of 100 nM to 0.1 nM at a flow rate of […] and at a temperature of 25° C. The protein complex was allowed to associate and dissociate for 180 seconds and 1000 or 1200 seconds, respectively. The surfaces were regenerated with a 30 second injection of 1.5 M NaCl/0.05 M NaOH. The data were fit to a simple 1:1 interaction model using the Langmuir fit option available within the Biaevaluaton software

[8] = molecular target: T7, mouse B7-H4-his (mouse, UniProt Q7TSP5 25-257); assay: ELISA, coated mB7-H4-his
T7 construct: also called mB7-H4-his; mB7-H4-His; not shown: his tag
T7 sequence: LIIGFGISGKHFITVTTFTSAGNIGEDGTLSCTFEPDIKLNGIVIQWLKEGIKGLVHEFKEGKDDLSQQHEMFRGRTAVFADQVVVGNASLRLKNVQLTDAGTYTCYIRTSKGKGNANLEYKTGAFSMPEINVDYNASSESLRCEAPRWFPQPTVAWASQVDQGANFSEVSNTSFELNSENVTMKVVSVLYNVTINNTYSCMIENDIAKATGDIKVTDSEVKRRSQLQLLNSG
Protocol: as §1

[9] = molecular target: T4, mouse B7-H4 expressed on cells; assay: flow cytometry, CHO cells expressing mB7-H4; remark: listed apart in the source
Protocol: (§4) ELISA experiments were performed to determine binding to hB7-H4-Fc (FIG. 3A), hB7-H4-his (FIG. 3B), mB7-H4-Fc (FIG. 3C), and hB7-H4 IgV domain (FIG. 3D). Flow cytometry experiments were performed to determine binding to CHO cells expressing hB7-H4 (FIG. 3E) or mB7-H4 (FIG. 3F).
as §2

[10] = molecular target: T8, human B7-H4-his (human, UniProt Q7Z7D3 25-259); assay: SPR (Biacore)
T8 construct: also called hB7-H4-his; hB7-H4 his; not shown: his tag
T8 sequence: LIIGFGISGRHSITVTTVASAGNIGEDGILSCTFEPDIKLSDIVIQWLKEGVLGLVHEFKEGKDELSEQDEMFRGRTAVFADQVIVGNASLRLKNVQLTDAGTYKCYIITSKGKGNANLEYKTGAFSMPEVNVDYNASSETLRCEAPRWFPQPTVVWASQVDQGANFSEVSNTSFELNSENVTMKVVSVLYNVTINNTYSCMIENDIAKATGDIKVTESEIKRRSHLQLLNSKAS
Protocol: as §3
(§5) The kinetics for binding of the different antibodies to their targets were examined using Biacore analysis.

[11] = molecular target: T9, human B7-H4-Fc (human); assay: SPR (Biacore)
T9 construct: also called hB7-H4-Fc; hB7-H4 Fc
Protocol: as §3, §5

[12] = molecular target: T10, mouse B7-H4-Fc (mouse; human); assay: ELISA, coated mB7-H4-Fc
T10 construct: also called mB7-H4-Fc; mB7-H4-hFc
Protocol: as §4, §1

[13] = molecular target: T11, mB7-H4 (soluble mouse B7-H4, construct not named) (mouse, UniProt Q7TSP5 25-257, limits assumed); assay: ELISA and SPR (Biacore)
T11 sequence: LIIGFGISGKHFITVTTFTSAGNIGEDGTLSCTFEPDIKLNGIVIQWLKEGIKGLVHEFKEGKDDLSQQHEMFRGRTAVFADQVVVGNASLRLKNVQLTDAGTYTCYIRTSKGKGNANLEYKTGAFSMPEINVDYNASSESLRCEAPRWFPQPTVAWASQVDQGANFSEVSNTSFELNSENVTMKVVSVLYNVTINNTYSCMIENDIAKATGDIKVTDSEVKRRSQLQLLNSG
Protocol: as §1, §3

[14] = molecular target: T4, mouse B7-H4 expressed on cells; assay: flow cytometry, mB7-H4/CT26 cells
Protocol: as §2

[15] = molecular target: T1, hB7-H4 (soluble human B7-H4, construct …); assay: ELISA, hB7-H4; remark: listed apart in the source
Protocol: as §1

[16] = molecular target: T2, IgC domain of human B7-H4-Fc; assay: ELISA, coated hB7-H4 IgC domain
[17] = molecular target: T11, mB7-H4 (soluble mouse B7-H4, construct …); assay: SPR (Biacore); values equal to Table 11
[18] = molecular target: T6, IgV domain of mouse B7-H4-Fc; assay: ELISA, coated mB7-H4 IgV domain; remark: listed apart in the source
[19] = molecular target: T3, human B7-H4 expressed on cells; assay: flow cytometry, SK-BR-3 cells; remark: listed apart in the source
[20] = molecular target: T7, mouse B7-H4-his; assay: ELISA, coated mB7-H4-his (title on the sheet: Binding to mB7H4-his)
Protocol: as §1

[21] = molecular target: T11, mB7-H4 (soluble mouse B7-H4, construct …); assay: ELISA, mB7-H4
Protocol: as §1

[22] = molecular target: T4, mouse B7-H4 expressed on cells; assay: flow cytometry, mB7-H4/CT26 cells; remark: listed apart in the source
[23] = molecular target: T11, mB7-H4 (soluble mouse B7-H4, construct …); assay: ELISA, mB7-H4; remark: listed apart in the source
Protocol: as §1

[24] = molecular target: T10, mouse B7-H4-Fc; assay: ELISA, coated mB7-H4-Fc; remark: listed apart in the source
Summary of the method: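 Human or mouse B7-H4-Fc (or his-tagged), about 1-2 μg/ml, was coated overnight at 4° C and blocked with 3% PBS+milk. Serially diluted antibodies bound for 1-1.5 h at RT, detected with HRP-conjugated anti-hFab and TMB, stopped with 1N H₂SO₄. EC50 came from OD450 versus antibody concentration curves.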

[25] = molecular target: T8, human B7-H4-his; assay: ELISA, coated hB7-H4-his
Protocol: as §1

[26] = molecular target: T11, mB7-H4 (soluble mouse B7-H4, construct …); assay: SPR (Biacore)
Protocol: as §3

[27] = molecular target: T12, IgV domain of human B7-H4-Fc (human); assay: ELISA, coated hB7-H4 IgV domain
T12 construct: also called hB7-H4 IgV domain

[28] = molecular target: T1, hB7-H4 (soluble human B7-H4, construct …); assay: SPR (Biacore); remark: listed apart in the source

T6 sequence (chain, as listed by the source): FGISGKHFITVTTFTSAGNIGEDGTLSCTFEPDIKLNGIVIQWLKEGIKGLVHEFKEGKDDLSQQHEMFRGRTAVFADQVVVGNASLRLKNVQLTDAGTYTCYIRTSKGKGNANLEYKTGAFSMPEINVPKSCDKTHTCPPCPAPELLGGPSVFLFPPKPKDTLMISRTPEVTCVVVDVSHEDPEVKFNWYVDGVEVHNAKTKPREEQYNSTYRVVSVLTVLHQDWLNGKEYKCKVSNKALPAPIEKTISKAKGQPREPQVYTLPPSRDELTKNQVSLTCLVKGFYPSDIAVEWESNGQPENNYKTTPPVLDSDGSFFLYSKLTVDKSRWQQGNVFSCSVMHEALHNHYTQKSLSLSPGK
T5 sequence (chain, as listed by the source): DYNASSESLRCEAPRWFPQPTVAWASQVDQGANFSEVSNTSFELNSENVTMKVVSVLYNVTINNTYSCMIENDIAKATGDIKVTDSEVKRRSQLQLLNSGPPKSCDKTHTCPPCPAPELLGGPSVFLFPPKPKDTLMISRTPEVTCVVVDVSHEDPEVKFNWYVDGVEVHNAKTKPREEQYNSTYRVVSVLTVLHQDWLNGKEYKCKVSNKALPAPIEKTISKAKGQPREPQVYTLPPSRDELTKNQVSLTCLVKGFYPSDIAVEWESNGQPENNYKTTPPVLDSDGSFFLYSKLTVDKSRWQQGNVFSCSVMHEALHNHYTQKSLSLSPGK
T2 sequence (chain, as listed by the source): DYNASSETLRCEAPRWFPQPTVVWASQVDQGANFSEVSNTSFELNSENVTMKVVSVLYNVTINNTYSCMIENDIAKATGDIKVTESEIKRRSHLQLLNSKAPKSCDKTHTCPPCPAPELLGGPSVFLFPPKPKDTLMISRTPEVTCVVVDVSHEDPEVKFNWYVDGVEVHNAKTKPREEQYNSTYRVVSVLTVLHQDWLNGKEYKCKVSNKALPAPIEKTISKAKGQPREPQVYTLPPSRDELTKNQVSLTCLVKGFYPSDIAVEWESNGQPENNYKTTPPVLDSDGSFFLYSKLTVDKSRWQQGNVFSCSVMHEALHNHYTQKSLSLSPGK
T10 sequence (chain, as listed by the source): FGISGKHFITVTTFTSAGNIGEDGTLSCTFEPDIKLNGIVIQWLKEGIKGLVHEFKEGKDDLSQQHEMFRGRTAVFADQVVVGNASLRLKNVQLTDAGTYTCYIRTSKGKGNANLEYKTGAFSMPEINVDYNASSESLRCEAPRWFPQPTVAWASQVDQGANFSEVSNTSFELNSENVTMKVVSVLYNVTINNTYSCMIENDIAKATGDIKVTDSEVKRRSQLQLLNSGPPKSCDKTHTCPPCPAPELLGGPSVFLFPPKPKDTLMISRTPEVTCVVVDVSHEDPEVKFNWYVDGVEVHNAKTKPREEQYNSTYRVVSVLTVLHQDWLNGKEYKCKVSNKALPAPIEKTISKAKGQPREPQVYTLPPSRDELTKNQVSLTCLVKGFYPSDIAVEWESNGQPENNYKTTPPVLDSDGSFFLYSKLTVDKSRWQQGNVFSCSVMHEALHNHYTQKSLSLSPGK
T12 sequence (chain, as listed by the source): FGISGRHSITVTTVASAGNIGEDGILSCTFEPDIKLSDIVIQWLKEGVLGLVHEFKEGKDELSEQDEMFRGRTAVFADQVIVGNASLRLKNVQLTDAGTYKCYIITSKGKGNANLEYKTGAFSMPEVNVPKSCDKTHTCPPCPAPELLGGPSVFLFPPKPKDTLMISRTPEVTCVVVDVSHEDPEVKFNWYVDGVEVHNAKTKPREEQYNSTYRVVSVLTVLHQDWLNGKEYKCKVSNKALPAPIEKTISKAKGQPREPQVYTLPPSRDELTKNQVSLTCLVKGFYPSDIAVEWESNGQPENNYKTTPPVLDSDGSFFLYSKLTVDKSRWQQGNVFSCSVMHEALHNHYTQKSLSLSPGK
T9 sequence (chain, as listed by the source): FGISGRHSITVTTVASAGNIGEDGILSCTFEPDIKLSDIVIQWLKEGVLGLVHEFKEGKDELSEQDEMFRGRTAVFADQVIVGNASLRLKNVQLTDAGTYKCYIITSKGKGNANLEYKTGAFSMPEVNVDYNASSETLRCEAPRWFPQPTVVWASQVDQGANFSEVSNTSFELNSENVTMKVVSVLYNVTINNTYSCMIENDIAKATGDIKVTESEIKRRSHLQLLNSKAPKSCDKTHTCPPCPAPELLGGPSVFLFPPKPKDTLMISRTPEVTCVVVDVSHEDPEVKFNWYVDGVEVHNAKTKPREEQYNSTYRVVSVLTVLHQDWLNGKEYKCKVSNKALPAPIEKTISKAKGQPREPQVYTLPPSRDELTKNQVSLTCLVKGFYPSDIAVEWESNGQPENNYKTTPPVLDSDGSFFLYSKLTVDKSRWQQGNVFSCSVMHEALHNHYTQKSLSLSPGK

B1: 3F2/49A2 (antibody, human IgG1, V domains shown)
VH: QVQLVQSGAEVKKPGASVKVSCKASGYTFTAQYMYWVRQAPGQGLEWMGRINPTSGNTVYAQKLQGRVTMTRDTSTSTVYMELSSLRSEDTAVYYCARGINWFDPWGQGTLVTVSS
VL: DIQMTQSPSSLSASVGDRVTITCRASQNIDTYVNWYQQKPGKAPKLLIYAASRLHTVPSRFSGSGSGTDFTLTISSLQPEDFATYYCQQSYTSPFTFGGGTKVEIK
notes: 3F2 VH with 49A2 VL
[1]
  EC50: 0.056 nM
[2]
  binding result: no binding (tested: axis value -8 (labelled log nM))
[3]
  EC50: 0.79 nM
[4]
  EC50 (read off the curve): ~8 nM
[5]
  binding result: no binding (tested: axis value -8 (labelled log nM))
[6]
  binding result: no binding (tested: axis value -8 (labelled log nM))
[7]
  Kd: 0.015 nM

B2: 3F2/3F2 (antibody, human IgG1, V domains shown)
VH: QVQLVQSGAEVKKPGASVKVSCKASGYTFTAQYMYWVRQAPGQGLEWMGRINPTSGNTVYAQKLQGRVTMTRDTSTSTVYMELSSLRSEDTAVYYCARGINWFDPWGQGTLVTVSS
VL: not shown
[8]
  binding result: no binding (tested: axis value -8 (labelled log nM))
[1]
  EC50: 0.048 nM
[9]
  binding result: no binding (tested: axis value -7 (log scale labelled nM))
[10]
  Kd: 0.0849 nM
[11]
  Kd: 0.0951 nM
[12]
  binding result: no binding (tested: axis value -8 (log scale labelled nM))
[3]
  EC50: 0.84 nM
[5]
  binding result: no binding (tested: axis value -8 (labelled log nM))
[6]
  binding result: no binding (tested: axis value -8 (labelled log nM))
[7]
  Kd: 0.0819 nM
[13]
  binding result: no binding

B3: 9D11/68F5 (antibody, human IgG1, V domains shown)
VH: QVQLVQSGAEVKKPGASVKVSCKASGYTFTSYGISWVRQAPGQGLEWVGVINPNGGTTTYAQTFQGRVTMTRDTSTSTVYMELSSLRSEDTAVYYCARTGYSSGWAFDYWGRGTLVTVSS
VL: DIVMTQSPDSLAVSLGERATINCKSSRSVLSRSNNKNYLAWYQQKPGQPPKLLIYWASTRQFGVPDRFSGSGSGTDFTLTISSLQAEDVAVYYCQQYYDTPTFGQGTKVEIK
notes: 9D11 VH with 68F5 VL
[14]
  EC50: 31.8 nM
[15]
  EC50: 0.105 nM
[1]
  EC50: 0.778 nM
[16]
  EC50 (read off the curve): ~0.1 nM
[17]
  Kd: 2.96 nM
[18]
  binding result: no binding (tested: log 1 nM (10 nM))
[19]
  EC50: 3.53 nM
[20]
  EC50 (read off the curve): ~0.1 nM
[21]
  EC50: 0.144 nM
[3]
  EC50: 9.53 nM
[22]
  EC50: 9.41 nM
[23]
  EC50: 0.145 nM
[24]
  binding result: binds
[25]
  EC50 (read off the curve): ~0.2 nM
[26]
  Kd: 5.96 nM
[7]
  Kd: 7.15 nM
[27]
  binding result: no binding (tested: log 1 nM (10 nM))
[28]
  Kd: 2.96 nM
